Consider 3 substances from paper PMC5956149.

pKd: −log10 of the molar value.

For the assay, the target named is GFP-tagged MtrB (cytosolic catalytic domain of MtrB with GFP downstream) (Mycobacterium tuberculosis). Put plainly: MST.
Turning to “MtrB^H305Q (phosphorylation site mutant, cytosolic catalytic domain) (domain or fragment)”, the pKd (usually −log10 of the Kd, conventionally taken in molar units) was 6.39.

As to “MtrB^N419D (mutant defective in ATP binding, cytosolic catalytic domain) (domain or fragment)”, the pKd was 6.11.

In turn, “MtrB wild type (cytosolic catalytic domain) (domain or fragment)” had a pKd of 5.93. The pKd values of the last two substances are within 0.2 log units of each other.
